Assay results as given in patent publication US8586538B2, “Method of treating a patient suffering from a bleeding disorder comprising administering an antibody against the A3-C1 of FVIII” (Stichting Sanquin Bloedvoorziening, priority 2002, dated 2013).

Key:
[1] = molecular target: T1, FVIII/FV^1811-1818 chimera (Homo sapiens, UniProt P00451, E1830S/F1835V/K1832Y/K1837H/T1831S); experiment: SPR binding of scFv KM41 to FVIII/FV^1811-1818 light chain chimera; settings: scFv 40 nM
T1 construct: FVIII/FV^1811-1818 light chain chimera and wild-type FVIII light chain were purified employing Q-Sepharose chromatography; made in house; host or cells: murine fibroblasts (C127) cells
T1 sequence (P00451 1668-2351 E1830S/T1831S/K1832Y/F1835V/K1837H limits assumed): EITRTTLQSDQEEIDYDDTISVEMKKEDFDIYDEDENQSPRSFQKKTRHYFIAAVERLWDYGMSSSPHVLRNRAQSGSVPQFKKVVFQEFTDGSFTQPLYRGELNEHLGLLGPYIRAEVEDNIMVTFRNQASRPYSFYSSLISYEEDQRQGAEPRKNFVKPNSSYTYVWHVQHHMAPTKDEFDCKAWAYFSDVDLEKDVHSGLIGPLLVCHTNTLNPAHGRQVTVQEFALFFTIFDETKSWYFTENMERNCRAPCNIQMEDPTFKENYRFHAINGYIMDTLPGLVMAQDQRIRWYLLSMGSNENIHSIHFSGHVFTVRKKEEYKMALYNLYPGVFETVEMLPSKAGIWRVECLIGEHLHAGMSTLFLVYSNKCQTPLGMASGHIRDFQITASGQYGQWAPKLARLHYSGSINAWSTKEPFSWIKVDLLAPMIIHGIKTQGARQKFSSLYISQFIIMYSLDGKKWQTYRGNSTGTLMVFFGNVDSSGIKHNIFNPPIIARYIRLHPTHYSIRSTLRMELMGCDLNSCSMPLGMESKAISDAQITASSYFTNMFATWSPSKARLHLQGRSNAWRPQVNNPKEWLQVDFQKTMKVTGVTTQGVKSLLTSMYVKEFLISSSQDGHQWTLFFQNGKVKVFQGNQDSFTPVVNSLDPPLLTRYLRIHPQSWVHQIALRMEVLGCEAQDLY
Method: (§1) FIG. 7. Binding of scFv KM41 to the FVIII/FV^1811-1818 light chain chimera. ScFv EL14 at a CM5 sensor chip (67 fmol/mm^2) was incubated with either the recombinant wild-type FVIII light chain or the recombinant FVIII/FV^1811-1818 chimera till a density of 20 fmol/mm^2, in 150 mM NaCl, 50 mM Tris (pH 7.4). ScFv KM41 (40 nM) was passed over two separate channels with immobilized intact FVIII light chain (I) or FVIII/FV^1811-1818 chimera (II), respectively. Response is indicated as Resonance Units (RU) and is corrected for nonspecific binding.
(§2) The kinetics of protein interactions was determined by surface plasmon resonance (SPR) analysis, employing a BIAcore™2000 biosensor system (Biacore AS, Uppsala, Sweden). […] Association of analyte was assessed in 150 mM NaCl, 2 mM CaCl2, 0.005% (v/v) Tween® 20, and 20 mM Hepes (pH 7.4) for 2 min, at a flow rate of 20 μl/min at 25° C. […] The association (kon) and dissociation (koff) rate constants were determined by using the BIAevaluation software 3.1 (Biacore AB, Uppsala, Sweden). […] Equilibrium dissociation constants (kd) were calculated from the ratio koff/kon. […]

[2] = molecular target: T2, wild-type recombinant FVIII light chain (Homo sapiens, UniProt P00451); experiment: SPR binding of scFv KM41 to wild-type recombinant FVIII light chain; settings: scFv 40 nM
T2 construct: FVIII/FV^1811-1818 light chain chimera and wild-type FVIII light chain were purified employing Q-Sepharose chromatography; made in house; host or cells: murine fibroblasts (C127) cells
T2 sequence (P00451 1668-2351 limits assumed): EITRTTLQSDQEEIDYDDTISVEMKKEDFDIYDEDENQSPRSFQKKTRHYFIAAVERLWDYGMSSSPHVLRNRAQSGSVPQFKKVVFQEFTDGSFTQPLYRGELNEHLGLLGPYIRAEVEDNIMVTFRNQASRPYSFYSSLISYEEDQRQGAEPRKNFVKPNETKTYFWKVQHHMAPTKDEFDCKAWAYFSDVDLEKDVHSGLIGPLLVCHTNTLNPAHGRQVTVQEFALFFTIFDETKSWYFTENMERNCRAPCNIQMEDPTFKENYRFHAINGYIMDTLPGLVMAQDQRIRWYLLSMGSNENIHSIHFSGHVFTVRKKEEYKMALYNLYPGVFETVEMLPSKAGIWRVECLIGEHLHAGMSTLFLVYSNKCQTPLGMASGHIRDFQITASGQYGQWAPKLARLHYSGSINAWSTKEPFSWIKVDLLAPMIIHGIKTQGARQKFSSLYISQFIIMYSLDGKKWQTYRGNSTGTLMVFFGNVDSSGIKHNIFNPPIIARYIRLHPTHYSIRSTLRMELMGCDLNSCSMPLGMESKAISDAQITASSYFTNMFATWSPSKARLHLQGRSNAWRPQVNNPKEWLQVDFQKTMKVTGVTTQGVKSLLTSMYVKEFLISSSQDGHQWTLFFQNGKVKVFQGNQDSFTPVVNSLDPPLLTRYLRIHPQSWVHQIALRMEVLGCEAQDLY
Method: as §1, §2

FVIIIa-FIXa complex = FVIIIa-FIXa complex (Homo sapiens, UniProt P00451+P00740); settings: by interfering with the assembly of the FVIIIa-FIXa complex; cited from earlier work
FVIIIa-FIXa complex, sequence (P00740 47-191 limits assumed, one chain of several): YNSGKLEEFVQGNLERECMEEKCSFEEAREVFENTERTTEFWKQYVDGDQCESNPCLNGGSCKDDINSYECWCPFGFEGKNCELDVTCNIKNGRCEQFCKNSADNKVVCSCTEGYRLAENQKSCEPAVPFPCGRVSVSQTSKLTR

Binding of scFv to immobilized FVIII/FV^1811-1818 chimera [1]: did not recognize | Binding of scFv to immobilized wild-type recombinant FVIII light chain [2]: readily reacted
B1: scFv KM41: scFv antibody fragment directed against FVIII region Arg^1803-Lys^1818 (protein)
scFv: QVQLLQSAADVKKPGASVKVSCTASGYIFTSYDIDWVRQATGQGLEWMGWMNPNSGNAGFAQKFKGRLTLTRDTSTSTAYMELRRLESEDTAVYYCARSTPHSYSGSGLPPTSDSWGQGTLVTVSSGGGGSGGGGSGGGGSEIVLTQSPGTLSLSPGERATLSCRASQSVSSSFLGWYQQKPGQAPRLLIYGASSRATGIPDRFSGSGSGTDFTLTISRLEPEDFAVYYCQQYGISPLTFGGGTKLEIKRAAAEQKLISEEDLNGAAHHHHHH
Inhibition of FVIII procoagulant activity (FVIIIa-FIXa complex): effective inhibitors
